Test results as given in patent US8541373B2, “BChE albumin fusions for the treatment of cocaine abuse” (priority 2009, dated 2013).

Tested on: cocaine
Assay: Plasma cocaine, benzoylecgonine and ecgonine methyl ester (LC-MS) and cocaine PK after IV cocaine post-AlbuBChE
Format: in vivo, cynomolgus monkeys
Details: for Ecgonine methyl ester plasma concentration (mean) / Mean benzoylecgonine plasma concentration / Mean cocaine plasma concentration / Mean benzoylecgonine AUC(0-t) / Mean cocaine AUC % Extrap / Mean cocaine AUC(0-t) / Mean cocaine AUC(0-∞) / Mean cocaine C0 / Mean cocaine CI / Mean cocaine Vss / Mean cocaine t½: 5 mg/kg IM
Method: Blood was placed into K2EDTA blood collection tubes with esterase inhibitor diisopropylfluorophosphate (DFP). Tubes were inverted several times and placed on wet ice upon collection. Samples were centrifuged at 2-8° C. within 45 minutes of collection. The resultant plasma was recovered and a single 200 μL aliquot of plasma was placed into polypropylene tubes. Plasma samples were frozen over dry ice and stored at −75±15° C.
The following outline describes the LC-MS-based assay employed for the measurement of cocaine in plasma samples. Prior to MS analysis, plasma samples, calibration standards and controls were extracted using supported liquid extraction (SLE-ISOLUTE, Biotage). Twenty-five microliters of samples (25 μL) received 150 μl of 5% Ammonium hydroxide and 25 μl internal standard solution (Cocaine-d3). After mixing and transfer to SLE plate, samples were eluted with methylene chloride and evaporated to dryness. After resuspension in 50 μl of reconstitution solution—5% ACM in 10 mM ammonium acetate in water, 10 μl was injected onto Thermo Hypercarb column at 0.5 ml/min. Mobile phase was biphasic. Mass spectrophotometric detection was performed using Api 4000, APCI positive interface and Multiple Reaction Monitoring (MRM). Plasma concentrations of cocaine, benzoylecgonine and ecgonine methyl ester were determined using this assay.
When the data permits, pharmacokinetic parameter values for cocaine and its metabolites were determined using plasma concentration-times profiles for individual animals at all the study days of cocaine administration. […] Specifically the model for non-compartmental analysis with IV bolus input for cocaine and extravascular input for the metabolites.

[1] = cocaine 1 mg/kg IV 48 hr post-AlbuBChE, 10 min after cocaine
[2] = cocaine 1 mg/kg IV 48 hr post-AlbuBChE, 15 min after cocaine
[3] = cocaine 1 mg/kg IV 48 hr post-AlbuBChE, 20 min after cocaine
[4] = cocaine 1 mg/kg IV 48 hr post-AlbuBChE, 30 min after cocaine
[5] = cocaine 1 mg/kg IV 48 hr post-AlbuBChE, 40 min after cocaine
[6] = cocaine 1 mg/kg IV 48 hr post-AlbuBChE, 60 min after cocaine
[7] = cocaine 1 mg/kg IV 96 hr post-AlbuBChE
[8] = cocaine 1 mg/kg IV 96 hr post-AlbuBChE, 5 min after cocaine
[9] = cocaine 1 mg/kg IV 96 hr post-AlbuBChE, 10 min after cocaine
[10] = cocaine 1 mg/kg IV 96 hr post-AlbuBChE, 15 min after cocaine
[11] = cocaine 1 mg/kg IV 96 hr post-AlbuBChE, 20 min after cocaine
[12] = cocaine 1 mg/kg IV 96 hr post-AlbuBChE, 30 min after cocaine
[13] = cocaine 1 mg/kg IV 96 hr post-AlbuBChE, 40 min after cocaine
[14] = cocaine 1 mg/kg IV 96 hr post-AlbuBChE, 60 min after cocaine
[15] = cocaine 1 mg/kg IV 120 hr post-AlbuBChE
[16] = cocaine 1 mg/kg IV 120 hr post-AlbuBChE, 5 min after cocaine
[17] = cocaine 1 mg/kg IV 120 hr post-AlbuBChE, 10 min after cocaine
[18] = cocaine 1 mg/kg IV 120 hr post-AlbuBChE, 15 min after cocaine
[19] = cocaine 1 mg/kg IV 120 hr post-AlbuBChE, 20 min after cocaine
[20] = cocaine 1 mg/kg IV 120 hr post-AlbuBChE, 30 min after cocaine
[21] = cocaine 1 mg/kg IV 120 hr post-AlbuBChE, 40 min after cocaine
[22] = cocaine 1 mg/kg IV 120 hr post-AlbuBChE, 60 min after cocaine
[23] = cocaine 1 mg/kg IV 240 hr post-AlbuBChE
[24] = cocaine 1 mg/kg IV 240 hr post-AlbuBChE, 5 min after cocaine
[25] = cocaine 1 mg/kg IV 240 hr post-AlbuBChE, 10 min after cocaine
[26] = cocaine 1 mg/kg IV 240 hr post-AlbuBChE, 15 min after cocaine
[27] = cocaine 1 mg/kg IV 240 hr post-AlbuBChE, 20 min after cocaine
[28] = cocaine 1 mg/kg IV 240 hr post-AlbuBChE, 30 min after cocaine
[29] = cocaine 1 mg/kg IV 240 hr post-AlbuBChE, 40 min after cocaine
[30] = cocaine 1 mg/kg IV 240 hr post-AlbuBChE, 60 min after cocaine

## AlbuBChE
[1]
  Ecgonine methyl ester plasma concentration (mean): 68.9 ng/mL
  Mean benzoylecgonine plasma concentration: 21.0 ng/mL
  Mean cocaine plasma concentration: 89.9 ng/mL
[2]
  Ecgonine methyl ester plasma concentration (mean): 102 ng/mL
  Mean benzoylecgonine plasma concentration: 24.4 ng/mL
  Mean cocaine plasma concentration: 82.7 ng/mL
[3]
  Ecgonine methyl ester plasma concentration (mean): 107 ng/mL
  Mean benzoylecgonine plasma concentration: 23.7 ng/mL
  Mean cocaine plasma concentration: 49.5 ng/mL
[4]
  Ecgonine methyl ester plasma concentration (mean): 108 ng/mL
  Mean benzoylecgonine plasma concentration: 25.9 ng/mL
  Mean cocaine plasma concentration: 36.7 ng/mL
[5]
  Ecgonine methyl ester plasma concentration (mean): 106 ng/mL
  Mean benzoylecgonine plasma concentration: 25.5 ng/mL
  Mean cocaine plasma concentration: 18.9 ng/mL
[6]
  Ecgonine methyl ester plasma concentration (mean): 108 ng/mL
  Mean benzoylecgonine plasma concentration: 24.4 ng/mL
  Mean cocaine plasma concentration: 5.74 ng/mL
[7]
  Mean benzoylecgonine AUC(0-t): 3222 ng·min/mL
  Mean cocaine AUC % Extrap: 14.2%
  Mean cocaine AUC(0-t): 6624 ng·min/mL
  Mean cocaine AUC(0-∞): 7729 ng·min/mL
  Mean cocaine C0: 190 ng/mL
  Mean cocaine CI: 129 mL/min/kg
  Mean cocaine Vss: 4.111 L/kg
  Mean cocaine t½: 21.3 min
[8]
  Ecgonine methyl ester plasma concentration (mean): 100 ng/mL
  Mean benzoylecgonine plasma concentration: 44.2 ng/mL
  Mean cocaine plasma concentration: 176 ng/mL
[9]
  Ecgonine methyl ester plasma concentration (mean): 60.9 ng/mL
  Mean benzoylecgonine plasma concentration: 43.5 ng/mL
  Mean cocaine plasma concentration: 166 ng/mL
[10]
  Ecgonine methyl ester plasma concentration (mean): 82.2 ng/mL
  Mean benzoylecgonine plasma concentration: 49.7 ng/mL
  Mean cocaine plasma concentration: 174 ng/mL
[11]
  Ecgonine methyl ester plasma concentration (mean): 104 ng/mL
  Mean benzoylecgonine plasma concentration: 51.1 ng/mL
  Mean cocaine plasma concentration: 136 ng/mL
[12]
  Ecgonine methyl ester plasma concentration (mean): 111 ng/mL
  Mean benzoylecgonine plasma concentration: 56.1 ng/mL
  Mean cocaine plasma concentration: 99.0 ng/mL
[13]
  Ecgonine methyl ester plasma concentration (mean): 126 ng/mL
  Mean benzoylecgonine plasma concentration: 57.7 ng/mL
  Mean cocaine plasma concentration: 80.6 ng/mL
[14]
  Ecgonine methyl ester plasma concentration (mean): 127 ng/mL
  Mean benzoylecgonine plasma concentration: 60.5 ng/mL
  Mean cocaine plasma concentration: 35.2 ng/mL
[15]
  Mean benzoylecgonine AUC(0-t): 3624 ng·min/mL
  Mean cocaine AUC % Extrap: 14.5%
  Mean cocaine AUC(0-t): 9378 ng·min/mL
  Mean cocaine AUC(0-∞): 11046 ng·min/mL
  Mean cocaine C0: 411 ng/mL
  Mean cocaine CI: 93.0 mL/min/kg
  Mean cocaine Vss: 2.857 L/kg
  Mean cocaine t½: 22.3 min
[16]
  Ecgonine methyl ester plasma concentration (mean): 45.5 ng/mL
  Mean benzoylecgonine plasma concentration: 44.6 ng/mL
  Mean cocaine plasma concentration: 298 ng/mL
[17]
  Ecgonine methyl ester plasma concentration (mean): 46.0 ng/mL
  Mean benzoylecgonine plasma concentration: 47.5 ng/mL
  Mean cocaine plasma concentration: 217 ng/mL
[18]
  Ecgonine methyl ester plasma concentration (mean): 96.5 ng/mL
  Mean benzoylecgonine plasma concentration: 50.3 ng/mL
  Mean cocaine plasma concentration: 216 ng/mL
[19]
  Ecgonine methyl ester plasma concentration (mean): 60.1 ng/mL
  Mean benzoylecgonine plasma concentration: 57.3 ng/mL
  Mean cocaine plasma concentration: 161 ng/mL
[20]
  Ecgonine methyl ester plasma concentration (mean): 79.9 ng/mL
  Mean benzoylecgonine plasma concentration: 63.6 ng/mL
  Mean cocaine plasma concentration: 139 ng/mL
[21]
  Ecgonine methyl ester plasma concentration (mean): 122 ng/mL
  Mean benzoylecgonine plasma concentration: 69.5 ng/mL
  Mean cocaine plasma concentration: 113 ng/mL
[22]
  Ecgonine methyl ester plasma concentration (mean): 187 ng/mL
  Mean benzoylecgonine plasma concentration: 69.2 ng/mL
  Mean cocaine plasma concentration: 49.5 ng/mL
[23]
  Mean benzoylecgonine AUC(0-t): 5088 ng·min/mL
  Mean cocaine AUC % Extrap: 29.2%
  Mean cocaine AUC(0-t): 12952 ng·min/mL
  Mean cocaine AUC(0-∞): 18578 ng·min/mL
  Mean cocaine C0: 424 ng/mL
  Mean cocaine CI: 55.6 mL/min/kg
  Mean cocaine Vss: 2.637 L/kg
  Mean cocaine t½: 33.8 min
[24]
  Ecgonine methyl ester plasma concentration (mean): 127 ng/mL
  Mean benzoylecgonine plasma concentration: 44.9 ng/mL
  Mean cocaine plasma concentration: 346 ng/mL
[25]
  Ecgonine methyl ester plasma concentration (mean): 26.1 ng/mL
  Mean benzoylecgonine plasma concentration: 56.4 ng/mL
  Mean cocaine plasma concentration: 283 ng/mL
[26]
  Ecgonine methyl ester plasma concentration (mean): 30.7 ng/mL
  Mean benzoylecgonine plasma concentration: 71.9 ng/mL
  Mean cocaine plasma concentration: 283 ng/mL
[27]
  Ecgonine methyl ester plasma concentration (mean): 35.1 ng/mL
  Mean benzoylecgonine plasma concentration: 83.4 ng/mL
  Mean cocaine plasma concentration: 226 ng/mL
[28]
  Ecgonine methyl ester plasma concentration (mean): 49.6 ng/mL
  Mean benzoylecgonine plasma concentration: 88.4 ng/mL
  Mean cocaine plasma concentration: 211 ng/mL
[29]
  Ecgonine methyl ester plasma concentration (mean): 53.1 ng/mL
  Mean benzoylecgonine plasma concentration: 101 ng/mL
  Mean cocaine plasma concentration: 161 ng/mL
[30]
  Ecgonine methyl ester plasma concentration (mean): 58.0 ng/mL
  Mean benzoylecgonine plasma concentration: 108 ng/mL
  Mean cocaine plasma concentration: 111 ng/mL
240 hr post-AlbuBChE administration of 0.2, 1 or 5 mg/kg
  AlbuBChE activity (cocaine concentrations vs Day 1 control): not active
